According to US7256013B2, “Kit for determining the acetylation level of a peptide based on sensitivity of the peptide to peptidase” (Cyclex Co., Ltd., priority 1999, dated 2007):
The star is where a group is joined. AMC = Cc1cc(=O)oc2cc(N*)ccc12; Boc = CC(C)(C)OC(=O)*

Columns and labels:
lysylendopeptidase = lysylendopeptidase (Achromobacter lyticus, UniProt P15636); experiment: Cleavage of fluorescence-labeled substrate peptide by lysylendopeptidase; format: biochemical; conditions: 5×10^−6 AU lysylendopeptidase; FIG. 1
Chain of lysylendopeptidase (P15636 206-473 limits assumed, species assumed): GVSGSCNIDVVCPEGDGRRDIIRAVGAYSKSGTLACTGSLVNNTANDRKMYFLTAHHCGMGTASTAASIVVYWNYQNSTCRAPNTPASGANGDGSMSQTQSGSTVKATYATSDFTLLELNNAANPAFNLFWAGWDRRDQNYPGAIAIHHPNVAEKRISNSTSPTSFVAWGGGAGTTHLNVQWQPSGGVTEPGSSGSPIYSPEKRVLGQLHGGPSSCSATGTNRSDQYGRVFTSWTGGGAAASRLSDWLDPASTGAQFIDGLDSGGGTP
Protocol: (§1) 1 μl of DMSO solution containing 10 mM substrate peptide, Boc-Val-Leu-(Ac)Lys-MCA, was added to 64 μl HDAC reaction buffer (25 mM Tris-HCl pH 7.5) for each assay. The mixture was poured into the wells of a microplate for fluorometry and was incubated at 30° C. Then, 10 μl of histone deacetylase solution was added to each well and the plate was subjected for deacetylation at 30° C. for 60 minutes. After the reaction, 5 μl of peptidase solution that was diluted with 25 mM Tris-HCl (pH 7.5) to an optimal concentration and 20 μl 5× protease reaction buffer were added to each well. The fluorescence intensity was measured every 150 seconds with fluorescence microplate reader. The fluorescence intensity was measured using Wallac 1420 ARVOsx Multi Label Counter (Amersham-Pharmacia Biotech). The composition of the reaction buffer was as follows.
(§2) 5×10^−6 AU lysylendopeptidase or 0.001U plasmin was added to Boc-Val-Leu-Lys-MCA or Boc-Val-Leu-(Ac)Lys-MCA. The Figures show the fluorescence intensity measured at an interval of about 150-seconds.

plasmin = plasmin (Homo sapiens, UniProt P00747); experiment: Cleavage of fluorescence-labeled substrate peptide by plasmin; format: biochemical; conditions: 0.001U plasmin; FIG. 2
Chain of plasmin (P00747 581-810 limits assumed, species assumed): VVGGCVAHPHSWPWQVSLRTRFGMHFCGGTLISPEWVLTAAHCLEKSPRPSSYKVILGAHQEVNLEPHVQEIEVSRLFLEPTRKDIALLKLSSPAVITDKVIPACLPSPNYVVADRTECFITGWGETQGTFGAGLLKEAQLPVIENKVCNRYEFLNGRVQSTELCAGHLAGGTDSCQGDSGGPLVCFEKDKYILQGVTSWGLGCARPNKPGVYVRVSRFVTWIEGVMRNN
Chain of plasmin (P00747 97-580 partner limits assumed, species assumed): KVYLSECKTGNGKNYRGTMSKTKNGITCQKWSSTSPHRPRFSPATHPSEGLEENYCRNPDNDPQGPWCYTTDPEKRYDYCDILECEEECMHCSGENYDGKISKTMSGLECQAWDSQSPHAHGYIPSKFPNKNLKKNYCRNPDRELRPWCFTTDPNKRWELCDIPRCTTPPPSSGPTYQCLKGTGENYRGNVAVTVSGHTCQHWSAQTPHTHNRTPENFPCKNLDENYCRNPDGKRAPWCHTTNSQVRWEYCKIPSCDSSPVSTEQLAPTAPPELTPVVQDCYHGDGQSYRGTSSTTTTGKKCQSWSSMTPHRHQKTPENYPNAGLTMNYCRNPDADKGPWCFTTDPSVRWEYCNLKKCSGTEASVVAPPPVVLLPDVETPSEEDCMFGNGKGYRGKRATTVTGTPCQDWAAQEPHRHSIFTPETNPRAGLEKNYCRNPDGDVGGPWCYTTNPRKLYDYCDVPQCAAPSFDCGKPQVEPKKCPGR
Protocol: as §1, §2

histone deacetylase = experiment: Histone deacetylase activity assay with Boc-Val-Leu-(Ac)Lys-MCA and lysylendopeptidase (fluorescence); format: biochemical, human; conditions: at a concentration of about 200 nM; FIG. 5
Protocol: MCF7 cells were washed with PBS, and then centrifuged. Precipitated cells were suspended in 4 ml lysis buffer and were left standing 15 minutes on ice. 5 ml lysate buffer was obtained by washing the centrifuge tube with 1 ml lysis buffer. The lysate was loaded on 15 ml sucrose cushion buffer in a centrifuge tube for type-07 rotor. Then, The tubes were centrifuged at 1300 g for 20 minutes and precipitated cells were recovered with 1.5 ml of the lysis buffer. After washing the cells, the cells were suspended in 700 μl low-salt buffer. The cells were sonicated for 30 seconds, and then allowed to stand still on ice for 30 minutes. The lysate was centrifuged at 100,000 g for 40 minutes, and the supernatant was collected to recover crude histone deacetylase. The pooled crude histone deacetylase was placed in a 1.5-ml tube, and was dialyzed overnight against a solution containing 50% glycerol, 150 mM NaCl, and 20 mM Tris (pH 7.5). The dialysate was substituted 3 times with fresh buffer. […]
1 μl of DMSO solution containing 10 mM substrate peptide, Boc-Val-Leu-(Ac)Lys-MCA, was added to 64 μl HDAC reaction buffer (25 mM Tris-HCl pH 7.5) for each assay. […] The fluorescence intensity was measured every 150 seconds with fluorescence microplate reader. The fluorescence intensity was measured using Wallac 1420 ARVOsx Multi Label Counter (Amersham-Pharmacia Biotech). […]

recombinant SIRT1 = biological target: T1, recombinant SIRT1 (Homo sapiens, UniProt Q96EB6); experiment: SIRT1 deacetylase activity assay (FMAP) with Nma-VGAK(Ac)RHSK(Dnp)-NH2 and lysylendopeptidase; format: biochemical; conditions: serial dilutions of NAD added to the reaction solution; FIG. 7
T1 construct: the first amino acid residue to the 747th residue of SIRT1 (full length) was amplified using this primer set; made in house; host or cells: E. coli BL21 Gold (DE3), vector pGEX-4T-1
T1 sequence (Q96EB6 1-747): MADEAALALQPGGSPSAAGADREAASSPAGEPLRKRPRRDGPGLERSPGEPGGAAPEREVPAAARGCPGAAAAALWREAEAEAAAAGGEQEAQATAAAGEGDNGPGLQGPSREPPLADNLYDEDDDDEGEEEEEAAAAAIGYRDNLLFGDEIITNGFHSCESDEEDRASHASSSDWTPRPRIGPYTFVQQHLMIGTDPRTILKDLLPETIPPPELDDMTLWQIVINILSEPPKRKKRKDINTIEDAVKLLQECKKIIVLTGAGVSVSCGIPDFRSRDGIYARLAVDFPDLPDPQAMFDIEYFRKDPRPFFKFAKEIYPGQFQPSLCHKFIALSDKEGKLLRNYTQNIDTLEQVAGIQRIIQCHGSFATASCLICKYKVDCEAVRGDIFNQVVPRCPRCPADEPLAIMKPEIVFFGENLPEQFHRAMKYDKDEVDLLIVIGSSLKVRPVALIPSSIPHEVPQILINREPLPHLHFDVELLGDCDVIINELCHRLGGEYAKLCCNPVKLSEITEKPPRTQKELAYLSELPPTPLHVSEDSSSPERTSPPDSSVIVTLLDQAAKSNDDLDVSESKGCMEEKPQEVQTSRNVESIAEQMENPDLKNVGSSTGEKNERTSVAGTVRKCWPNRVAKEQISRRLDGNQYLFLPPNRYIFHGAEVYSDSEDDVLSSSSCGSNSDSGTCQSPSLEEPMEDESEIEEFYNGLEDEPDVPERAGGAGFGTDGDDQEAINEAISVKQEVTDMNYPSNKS
Protocol: Peptide for the SIRT1-activity assay: Nma-VGAK(Ac)RHSK(Dnp)-NH2
5 μl of 0.005 U/μl lysylendopeptidase (LEP) was combined with 90 μl of an enzyme reaction buffer (50 mM Tris-HCl (pH 8.8), 4 mM MgCl2, 0.2 mM DTT) and 1 μl of 10 mM peptide solution for SIRT1-activity assay. 2 μl of 5 mM NAD and 2 μl of each of serial dilutions of a recombinant SIRT1 solution, or alternatively 2 μl of each of serial dilutions of an NAD solution and 2 μl of a solution containing 1 mg/ml recombinant SIRT1 were added at the same time to the mixture. The enzyme reaction and fluorescence assay were performed at 30° C. using 384-well plates for fluorescence assay.
The fluorescence intensity was measured at excitation wavelength 355 nm/fluorescence wavelength 460 nm by using a Wallac 1420 ARVO HTS Multi Label Counter. The measurement was repeated at about 2- to 3-minute intervals for 50 minutes.
It has been reported that the presence of NAD is essential for the deacetylase activity of SIRT1. In order to assess whether the NAD-dependency of SIRT1 activity can be detected using the assay method, an NAD solution was serially diluted and each dilution was added to the reaction solution, and then observation was made for the changes in the fluorescence intensity.

Compound	peptide cleavage by lysylendopeptidase (lysylendopeptidase)	peptide cleavage by plasmin (plasmin)	effect on the deacetylation reaction (inhibition) (histone deacetylase)	fluorescence intensity (deacetylation activity of recombinant SIRT1) (recombinant SIRT1)
Boc-Val-Leu-(Ac)Lys-MCA (VLK; HELM PEPTIDE1{[CC(C)(C)OC(=O)[*:2]].V.L.K.[Cc1cc(=O)oc2cc(N[*:1])ccc12]}|PEPTIDE2{[ac]}$PEPTIDE1,PEPTIDE2,4:R3-1:R2$$$V2.0; SMILES CC(=O)NCCCC[C@H](NC(=O)[C@H](CC(C)C)NC(=O)[C@@H](NC(=O)OC(C)(C)C)C(C)C)C(=O)Nc1ccc2c(C)cc(=O)oc2c1) [fluorescence labeled substrate peptide with an acetylated lysine residue]	did not cleave	did not cleave	–	–
CC(/C=C/C(=O)NO)=C\[C@@H](C)C(=O)c1ccc(N(C)C)cc1 [Trichostatin A]	–	–	almost completely inhibited	–
NC(=O)c1ccc[n+]([C@@H]2O[C@H](COP(=O)([O-])OP(=O)(O)OC[C@H]3O[C@@H](n4cnc5c(N)ncnc54)[C@H](O)[C@@H]3O)[C@@H](O)[C@H]2O)c1 [NAD]	–	–	–	increased in an NAD concentration-dependent fashion
Boc-Val-Leu-Lys-MCA (Boc-Val-Leu-Lys-{AMC}) [fluorescence labeled substrate peptide, non-acetylated]	digested	digested	–	–
